In US20100272750A1:

Legend:
HLA DRB1*0101 (human) [1] = test: competition with 125I probe peptide, purified HLA; crude peptide batch
HLA DRB1*0401 (human) [2] = test: as above
HLA DRB1*0404 (human) [3] = test: as above
HLA DRB1*0405 (human) [4] = test: as above
HLA DRB1*0701 (human) [5] = test: as above
HLA DRB1*0802 (human) [6] = test: as above
HLA DRB1*0901 (human) [7] = test: as above
HLA DRB1*1101 (human) [8] = test: as above
HLA DRB1*1201 (human) [9] = test: as above
HLA DRB1*1501 (human) [10] = test: as above
HLA DRB4*0101 (human) [11] = test: as above
HLA DRB1*0101 (human) [12] = test: competition with 125I probe peptide, purified HLA
HLA DRB1*0401 (human) [13] = test: competition with 125I probe peptide, purified HLA
HLA DRB1*0404 (human) [14] = test: competition with 125I probe peptide, purified HLA
HLA DRB1*0405 (human) [15] = test: competition with 125I probe peptide, purified HLA
HLA DRB1*0701 (human) [16] = test: competition with 125I probe peptide, purified HLA
HLA DRB1*0802 (human) [17] = test: competition with 125I probe peptide, purified HLA
HLA DRB1*0901 (human) [18] = test: competition with 125I probe peptide, purified HLA
HLA DRB1*1101 (human) [19] = test: competition with 125I probe peptide, purified HLA
HLA DRB1*1201 (human) [20] = test: competition with 125I probe peptide, purified HLA
HLA DRB1*1501 (human) [21] = test: competition with 125I probe peptide, purified HLA
HLA DRB4*0101 (human) [22] = test: competition with 125I probe peptide, purified HLA
HLA DRB5*0101 (human) = test: competition with 125I probe peptide, purified HLA
HLA DRB1*1302 (human) = test: competition with 125I probe peptide, purified HLA
HLA DRB1*0301 (human) = test: competition with 125I probe peptide, purified HLA
HLA DRB3*0101 (human) = test: competition with 125I probe peptide, purified HLA

Binder: LQAIELQLTLETIYN (modifications not checked) [HPV16.E2.070 HTL epitope]
- IC50 (HLA DRB1*0101 (human) [1]): 42 nM
- IC50 (HLA DRB1*0401 (human) [2]): 37 nM
- IC50 (HLA DRB1*0404 (human) [3]): 282 nM
- IC50 (HLA DRB1*0405 (human) [4]): 384 nM
- IC50 (HLA DRB1*0701 (human) [5]): 3280 nM
- IC50 (HLA DRB1*0802 (human) [6]): 7610 nM
- IC50 (HLA DRB1*0901 (human) [7]): 1430 nM
- IC50 (HLA DRB1*1101 (human) [8]): 4380 nM
- IC50 (HLA DRB1*1201 (human) [9]): 268 nM
- IC50 (HLA DRB1*1501 (human) [10]): 688 nM
- IC50 (HLA DRB4*0101 (human) [11]): 2 nM

Binder: FHSIAGQYRGQCNTC (modifications not checked) [HPV45.E6.127 HTL epitope]
- IC50 (HLA DRB1*0101 (human) [12]): 107 nM
- IC50 (HLA DRB1*0401 (human) [13]): 8.6 nM
- IC50 (HLA DRB1*0404 (human) [14]): 3300 nM
- IC50 (HLA DRB1*0405 (human) [15]): 358 nM
- IC50 (HLA DRB1*0701 (human) [16]): 2400 nM
- IC50 (HLA DRB1*0802 (human) [17]): 7640 nM
- IC50 (HLA DRB1*0901 (human) [18]): 1990 nM
- IC50 (HLA DRB1*1101 (human) [19]): 416 nM
- IC50 (HLA DRB1*1201 (human) [20]): 10100 nM
- IC50 (HLA DRB1*1501 (human) [21]): 574 nM
- IC50 (HLA DRB4*0101 (human) [22]): 1300 nM
- IC50 (HLA DRB5*0101 (human)): 43 nM

Binder: QRFHNIRGRWTGRCM (modifications not checked) [HPV16.E6.130 HTL epitope]
- IC50 (HLA DRB1*0101 (human) [12]): 36 nM
- IC50 (HLA DRB1*0401 (human) [13]): 2900 nM
- IC50 (HLA DRB1*0404 (human) [14]): 4110 nM
- IC50 (HLA DRB1*0405 (human) [15]): 4470 nM
- IC50 (HLA DRB1*0701 (human) [16]): 277 nM
- IC50 (HLA DRB1*0802 (human) [17]): 894 nM
- IC50 (HLA DRB1*1101 (human) [19]): 574 nM
- IC50 (HLA DRB1*1201 (human) [20]): 14600 nM
- IC50 (HLA DRB1*1302 (human)): 5310 nM
- IC50 (HLA DRB1*1501 (human) [21]): 17200 nM
- IC50 (HLA DRB4*0101 (human) [22]): 4550 nM
- IC50 (HLA DRB5*0101 (human)): 919 nM

Binder: TGRCIACWRRPRTET (modifications not checked) [HPV31.E6.132 HTL epitope]
- IC50 (HLA DRB1*0101 (human) [12]): 3170 nM
- IC50 (HLA DRB1*0301 (human)): 1030 nM
- IC50 (HLA DRB1*0401 (human) [13]): 758 nM
- IC50 (HLA DRB1*0404 (human) [14]): 1150 nM
- IC50 (HLA DRB1*0405 (human) [15]): 733 nM
- IC50 (HLA DRB1*0701 (human) [16]): 11500 nM
- IC50 (HLA DRB1*0802 (human) [17]): 512 nM
- IC50 (HLA DRB1*0901 (human) [18]): 13600 nM
- IC50 (HLA DRB1*1101 (human) [19]): 158 nM
- IC50 (HLA DRB1*1201 (human) [20]): 4950 nM
- IC50 (HLA DRB1*1302 (human)): 2770 nM
- IC50 (HLA DRB1*1501 (human) [21]): 84 nM
- IC50 (HLA DRB3*0101 (human)): 5960 nM
- IC50 (HLA DRB4*0101 (human) [22]): 225 nM
- IC50 (HLA DRB5*0101 (human)): 6050 nM
